Laboratory results from US20240368233A1 (University of Washington, published 2024).

B3: DFB-1 (designed binder)
chain: NTHFIVVHGSEDAAQLAEELVREISKKEGTEVRFEKKDGLLSIEVKNLSEERQREIQKALQLVQDVANAERVVRERPGSNLAKKALEIILRAAEELAKLDLKASLKAAVRAAEKVVREQPGSNLAKKALEIILRAAEELAKLPDPEALKEAVKAAEKVVREQPGSNLAKKALEIILRAAAALANLPDPESRKEADKAADKVRREQPGSELAVVAAIISAVARMGVKMELHPSGNEVKVVIKGLHIKQQRQLYRDVREAAKKAGVEVEIEVEGDTVTIVVRGGSHHWGSGSHHHHHH
notes: Bivalent connector
B8: DFA-1 (designed binder)
chain: TTNFHLINGSEEARQLIEKAVRAISKKEGTEVHFEKSDGTLEIRVKNLHEKREREIKKVIELILEVAAAERIVRERPGSNLAKKALEIILRAAEELAKADVDAALEAAVRAAEKVVREQPGSNLAKKALEIILRAAEELAKLPDPEALKEAVKAAEKVVREQPGSNLAKKALEIILRAAAALANLPDPESRKEADKAADKVRREQPGSELAVVAAIISAVARMGVKMELHPSGNEVKVVIKGLHIKQQRQLYRDVREAAKKAGVEVEIEVEGDTVTIVVRGGSHHWGSGSHHHHHH
notes: Bivalent connector

Tests used:
[1] = target: the molecule itself; test: BLI conditions (self-association)
[2] = target: the molecule itself; test: SEC and native MS (self-association)
101B62 = target: T1, 101B62; test: SEC of mixed components; linear tetramer listed in Table 6, neighbours in the chain
T1 construct: also called LHD101B62
T1 chain: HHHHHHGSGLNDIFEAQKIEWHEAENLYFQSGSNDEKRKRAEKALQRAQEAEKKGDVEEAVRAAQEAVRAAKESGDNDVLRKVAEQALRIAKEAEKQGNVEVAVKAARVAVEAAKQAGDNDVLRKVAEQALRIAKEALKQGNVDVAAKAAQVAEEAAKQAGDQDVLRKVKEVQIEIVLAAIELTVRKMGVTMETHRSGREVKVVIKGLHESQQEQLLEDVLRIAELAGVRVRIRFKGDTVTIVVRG
Protocol: (§1) Complexes and individual components were diluted in 20 mM Tris pH 8.0, 100 mM NaCl. After o/n equilibration of the mixtures at room temperature or 4 degrees C., 500 ul of sample was injected onto a Superdex™ 200 10/300 increase GL (dimers, linear assemblies) or Superose™ 6 increase 10/300 GL (symmetric assemblies) (all columns from GE healthcare) using the absorbance at 230 nm or 473 nm (for GFP tagged components) as read-out. Dimers were mixed at monomer concentrations of 5 μM or higher. Trimer and ABCD tetramer mixtures contained 5 μM of the bivalent connector, and 7.5 μM of each terminal cap (lower absolute concentrations with the same ratios were used for some trimers). ABCA tetramer mixtures contained 5 μM per bivalent connector and 15 μM terminal cap. The hexamer mixture contained 3 μM of components C and D, 3.6 μM of B and E, and 4.4 μM of A and F. The branched assembly shown in FIG. 4A contained 2.8 μM of the trivalent connector and 4 μM of each cap. For the exchange experiment shown in FIG. 5A, the ABC trimer was preincubated at concentrations of 6 μM B and 9 μM each of A and C. C′ was then added to reach a final concentration of 2 μM B, 3 μM each of A and C, and 6 μM C′.

[3] = target: the molecule itself; test: SEC titration (self-association)
DFA-1 = target: B8; test: SEC of mixed components; trimer listed in Table 6
Protocol: as §1

[4] = target: the molecule itself; test: SEC titration (Superdex 200, normalised A230) of 274B53 and 29B53 alone; self-association
DF275A-1 = target: T2, DF275A-1; test: SEC of partial and full mixtures followed at 473 nm (GFP on component C) and negative-stain EM; components as named for the hexamer in the legend of FIG. 16C and in Table 6
T2 construct: Bivalent connector
T2 chain: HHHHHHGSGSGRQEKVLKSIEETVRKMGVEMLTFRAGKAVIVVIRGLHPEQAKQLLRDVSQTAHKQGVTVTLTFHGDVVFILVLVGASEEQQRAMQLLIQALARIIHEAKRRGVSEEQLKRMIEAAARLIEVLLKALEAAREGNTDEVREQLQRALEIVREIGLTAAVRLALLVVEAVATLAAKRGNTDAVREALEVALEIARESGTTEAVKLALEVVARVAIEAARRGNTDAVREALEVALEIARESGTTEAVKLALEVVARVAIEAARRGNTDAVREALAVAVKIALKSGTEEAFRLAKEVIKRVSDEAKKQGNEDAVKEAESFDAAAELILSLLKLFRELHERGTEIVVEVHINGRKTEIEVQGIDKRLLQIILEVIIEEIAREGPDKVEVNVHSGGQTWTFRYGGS
Protocol: as §1
SEC peak fractions were concentrated prior to negative stain EM screening. Samples were then immediately diluted 5 to 150 times in TBS buffer (25 mM Tris pH 8.0, 25 mM NaCl) depending on sample concentration. […]

[5] = target: the molecule itself; test: SEC titration of the protomer alone at several injection concentrations (Superdex 200, normalised A230); self-association
TF3 = target: T3, TF3; test: SEC of the trivalent connector TF3, its three caps and the full mixture, with SDS-PAGE of the fractions; components named in the legend
T3 construct: Trivalent connector
T3 chain: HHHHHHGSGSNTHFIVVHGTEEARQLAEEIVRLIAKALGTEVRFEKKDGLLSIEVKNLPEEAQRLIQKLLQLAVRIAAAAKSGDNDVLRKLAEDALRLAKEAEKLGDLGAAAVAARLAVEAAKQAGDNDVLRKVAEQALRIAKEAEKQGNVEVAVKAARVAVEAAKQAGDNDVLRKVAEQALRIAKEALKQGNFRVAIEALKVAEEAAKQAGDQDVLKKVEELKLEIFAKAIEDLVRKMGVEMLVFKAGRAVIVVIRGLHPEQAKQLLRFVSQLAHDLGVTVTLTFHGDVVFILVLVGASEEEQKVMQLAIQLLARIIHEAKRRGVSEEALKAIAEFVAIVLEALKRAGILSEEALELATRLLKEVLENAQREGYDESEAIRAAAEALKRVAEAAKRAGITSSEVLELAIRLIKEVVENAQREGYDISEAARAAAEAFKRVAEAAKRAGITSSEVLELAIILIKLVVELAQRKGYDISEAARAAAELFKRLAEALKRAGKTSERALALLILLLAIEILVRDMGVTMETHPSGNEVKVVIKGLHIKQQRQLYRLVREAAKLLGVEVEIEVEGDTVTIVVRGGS

DFB0 = target: T4, DFB0; test: SEC of mixed components; linear tetramer listed in Table 6, neighbours in the chain
T4 construct: Bivalent connector
T4 chain: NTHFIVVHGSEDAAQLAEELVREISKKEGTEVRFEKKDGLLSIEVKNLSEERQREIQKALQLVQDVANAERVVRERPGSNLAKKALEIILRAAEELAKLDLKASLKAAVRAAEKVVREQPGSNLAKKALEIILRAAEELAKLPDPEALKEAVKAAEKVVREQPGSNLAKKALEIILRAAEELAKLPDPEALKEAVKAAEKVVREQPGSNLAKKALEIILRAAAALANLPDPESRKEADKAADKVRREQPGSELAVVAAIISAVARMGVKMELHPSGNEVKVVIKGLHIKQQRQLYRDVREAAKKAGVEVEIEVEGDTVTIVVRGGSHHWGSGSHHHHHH
Protocol: as §1

DFB-1 = target: B3; test: as above
Protocol: as §1

B1: LHD29 chainB (designed binder)
chain: SSIFLLSNVSEEARQRAEEYVRRISKKEGTEVRFEKDDGFLTIEVKNLSEERLREIAEYLWRVAV
notes: also called LHD29B; 29B
B1: binds [1].

B2: RingA (designed binder)
chain: GSSIFLLSNVSEDAAQLAEELVREISKKEGTEVRFEKDDGFLTIEVKNLSEERLREIAKALQLIVDVANAERVVRERPGSNLAKKALEIILRAAEELAKLDLKASLKAAVRAALKVVAEQPGSNLAKKALEIIQRAAEELAKLPDPEAQKEAQLAAELVRAAELAKSPDPEDLKEAVRLAEEVVRERPGSNLAKAALAIILRAAEELAKLPDPEALKEAVKAAEKVVREQPGSNLAKKALEIILRAAAALANLPDPESRKEADKAADKVRREQPGSELAVVAAIISAVARMGVKMELHPSGNEVKVVIKGLHIKQQRQLYRDVREAAKKAGVEVEIEVEGDTVTIVVRGGGSWGLEHHHHHH
notes: Component of the two-component C4 ring (four copies of each in the ring); also called 29B_53_101A
B2: no binding [2].

B3: binds (101B62).

B4: LHD101 chainB (designed binder)
chain: GRQEKVLKSIEETVRKMGVTMETHRSGNEVKVVIKGLHESQQEQLLEDVLRTAEKQGVRVRIRFKGDTVTIVVRE
notes: also called LHD101B
B4: no binding (tested: above 100 µM) [3].

B5: RingB (designed binder)
chain: GTWQWVLINISEEARQLIEKAVRAISKKEGTEVHFEKDDGVLHIRVKNLHEKRAREIHKVAKLILEVAAAERIVRERPGSNLAKKALEIILRAAEELAKADVDAALEAAVRAAEKVVREQPGSNLAKKAMEIILRAAEELAKLPDPEAQKEAAKAIARRVAAKVEELKRSGTSEDEIAEEVAREISEVIRTLKESGSSYEVICECVARIVAEIVEALKRSGTSEDEIAEIVARVISEVIRTLKESGSSYEVICECVARIVAEIVEALKRSGTSEEEIAEIVARVIQEVIRTLKESGSSYEVIRECLRRILEEVIEALKRSGVDSSEIVLIIIKIAVAVMGVTMEEHRSGNEVKVVIKGLHESQQEELLELVLRAAELAGVRVRIRFKGDTVTIVVRGGGSLEHHHHHH
notes: Component of the two-component C4 ring (four copies of each in the ring); also called 29A_53_4_101B
B5: no binding [2].

B6: 274B53 (designed binder)
chain: NTHFIVVHGSEDAAQLAEELVREISKKEGTEVRFEKKDGLLSIEVKNLSEERQREIQKALQLVQDVANAERVVRERPGSNLAKKALEIILRAAEELAKLDLKASLKAAVRAAEKVVREQPGSNLAKKALEIILRAAEELAKLPDPEALKEAVKAAEKVVREQPGSELAKKALEIIERAAEELKKSPDPEAQKEAKKAEQKVREESGSHHWGSGLNDIFEAQKIEWHEGSHHHHHH
notes: also called LHD274B DHR53 stop
B6: binds (DFA-1); binds [4].

B7: 275B (designed binder)
chain: GGSDVEWRYTNISEETQQKSAEFVLEIALRAGTGVTFTTRQGELQIQVHNLDELLAIAMLCYTLGLLLGDHRVQELAKRAVEAWERGDEERVKKLLIEALKRLVETAEEVVRERPGSNLAKLALEIILRAAEALARAEDPESLKEAVKAAEKVVREQPGSNLAKKALEIILRAAEELAKLPDPEALKEAVKAAEKVVREQPGSELAKKALEIIERAAEELKKSPDPEAQKEAKKAEQKVREERPGSGGSGSHHWGSGSHHHHHH
notes: also called LHD275 B; LHD275B
B7: binds (DF275A-1); binds [5]; binds (TF3).

B8: binds (DFB0); binds (DFB-1).
